T1: BsMiniIII (Bacillus subtilis, UniProt O31418 1-143)
T1 sequence: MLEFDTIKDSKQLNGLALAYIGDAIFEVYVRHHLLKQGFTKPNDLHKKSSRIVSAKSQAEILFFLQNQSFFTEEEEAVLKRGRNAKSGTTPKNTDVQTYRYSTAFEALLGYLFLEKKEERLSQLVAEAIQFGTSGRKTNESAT

B1: POS-ACCU (dsRNA)
RNA 1: GCUGGGAGGGAAACCUCUCUCUCUGGCC
RNA 2: GGCCAGAGAGAGAGGUUUCCCUCCCAGC
B2: NEG (dsRNA)
RNA 1: CCUGUCCCCCGCCGAAGUCGCUGCAAUU
RNA 2: AAUUGCAGCGACUUCGGCGGGGGACAGG

How the values were obtained:
Ct(FpH)MiniIII (chimera) = assay: filter binding; details: Enzyme-specific cleavage buffer (Table S1, mostly not in material) with MgCl2 replaced by 1 mM CaCl2; 1.5 nM 33P-dsRNA, 50 ul, 1 h at room temperature …
[1] = test system: Ct(FpHL)MiniIII (chimera); assay: filter binding; details: Enzyme-specific cleavage buffer (Table S1, mostly not in material) with MgCl2 replaced by 1 mM CaCl2; 1.5 nM 33P-dsRNA, 50 ul, 1 h at room temperature …
Ct(FpL)MiniIII (chimera) = assay: filter binding; details: Enzyme-specific cleavage buffer (Table S1, mostly not in material) with MgCl2 replaced by 1 mM CaCl2; 1.5 nM 33P-dsRNA, 50 ul, 1 h at room temperature …
CtMiniIII = assay: filter binding; details: Enzyme-specific cleavage buffer (Table S1, mostly not in material) with MgCl2 replaced by 1 mM CaCl2; 1.5 nM 33P-dsRNA, 50 ul, 1 h at room temperature …
FpMiniIII = assay: filter binding; details: Enzyme-specific cleavage buffer (Table S1, mostly not in material) with MgCl2 replaced by 1 mM CaCl2; 1.5 nM 33P-dsRNA, 50 ul, 1 h at room temperature …
SeMiniIII = assay: filter binding; details: Enzyme-specific cleavage buffer (Table S1, mostly not in material) with MgCl2 replaced by 1 mM CaCl2; 1.5 nM 33P-dsRNA, 50 ul, 1 h at room temperature …
BsMiniIII = molecular target: T1, BsMiniIII; assay: filter binding; 1 mM Ca2+ (no Mg2+); Enzyme-specific cleavage buffer (Table S1, mostly not in material) with MgCl2 replaced by 1 mM CaCl2; 1.5 nM 33P-dsRNA, 50 ul, 1 h at room temperature; nitrocellulose filter; one-site fit; details: protein: recombinant; tags: N-terminal His6 (pET28a, NdeI/XhoI); chain copies: 2; label: 33P 5' end label; blunt

Row | Molecule | Kd (Ct(FpH)MiniIII (chimera)) [µM] | Kd [1] [µM] | Kd (Ct(FpL)MiniIII (chimera)) [µM] | Kd (CtMiniIII) [µM] | Kd (FpMiniIII) [µM] | Kd (SeMiniIII) [µM] | Kd (BsMiniIII) [µM]
1 | CCUGUCCCCCGCCGAAGUCGCUGCAAUU / AAUUGCAGCGACUUCGGCGGGGGACAGG [NEG] | 1.94 | 2.25 | 1.8 | 1.34 | 19.9 | 0.19 | 
2 | GCUGGGAGGGAAACCUCUCUCUCUGGCC / GGCCAGAGAGAGAGGUUUCCCUCCCAGC [POS-ACCU] | 2.62 | 2.17 | 1.33 | 1.14 | > 100 | 0.16 | 
3 | B1 |  |  |  |  |  |  | 0.14 ± 0.02
4 | B2 |  |  |  |  |  |  | 0.07 ± 0.01

— article PMC5141509, “Identification of protein structural elements responsible for the diversity of sequence preferences among Mini-III RNases”
